Data on one substance can be found in article PMC3524116.

The target in this assay is Recombinant His6-tagged UVI31+ protein from C. reinhardtii (C. reinhardtii). As to the kind of experiment: SEC; gel filtration on a Sephadex G75 column in 50 mM sodium phosphate (pH 7.6), 50 mM NaCl; major peak at 87 ml (monomer), small hump at 68-75 ml (dimer). On the technique in general: In gel filtration, larger molecules generally elute earlier.

Consider “Recombinant His6-tagged UVI31+ protein from C. reinhardtii (natural protein)”, for which the stoichiometry N (commonly the number of molecules, sites or subunits per partner or assembly) turned out to be 2.
